The results in this text go back to the supplement of paper PMC7877785.

± gives the uncertainty stated by the source.

The nature of this data set: self-splicing fitness, log relative to wild type (ln ratio); higher = more splicing; Tetrahymena group I intron in knt gene, E. coli kanamycin selection, DiMSum; sequences stand for … in CUCUCU…GGAGGGAAAAGUUAUCAGGCAUGCACCUGGUAGCUAGUCUUUAAACCAAUAGAUUGCAUCGGUUUAAAAGGCAAGACCGUCAAAUUGCGGGAAAGGGGUCAACAGCCGUUCAGUACCAAGUCUCAGGGGAAACUUUGAGAUGGCCUUGCAAAGGGUAUGGUAAUAAGCUGACGGACAUGGUCCUAACCACGCAGCCAAGUCCUAAGUCAACAGAUCUUCUGUUGAUAUGGAUGCAGUUCACAGACUAAAUGUCGGUCGGGGAAGAUGUAUUCUUCUCAUAAGAUAUAGUCGGACCUCUCCUUAAUGGGAGCUAGCGGAUGAAGUGAUGCAACACUGGAGCCGCUGGGAACUAAUUUGUAUGCGAAAGUAUAUUGAUUAGUUUUGGAGUACUCGUGGUCG
The method in brief: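 DiMSum derived fitness as the error-weighted combination of fold changes across replicates, kanamycin versus no kanamycin, normalised to wild type. E. coli BL21(DE3) held the library, which randomised all eight P1ex-region intron nucleotides within the knt kanamycin-resistance gene on pET-22b(+). Six replicate transformations grew overnight at 37°C or 30°C on LB agar with or without 25 μg/mL kanamycin, also containing 100 μg/mL carbenicillin, 50 μM IPTG and 0.2% rhamnose, and pooled colonies were amplicon-sequenced on an Illumina HiSeq 2500.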

For GGGCAGCAAUAUUACGGGAC, the “self-splicing fitness (ln)” value was -2.3 ± 0.18 (30 °C) and -1.61 ± 0.18 (37 °C). In the same order, the values of GACUAGCAAUAUUACGACGA are -0.416 ± 0.074 and 0.00653 ± 0.078. In the same order, the values of GCAUAGCAAUAUUACGUUGU are -3.21 ± 0.17 and -2.74 ± 0.19. Take CGCGAGCAAUAUUACGGCCA: where the note is “37 °C”, the “self-splicing fitness (ln)” value is -1.68 ± 0.39. Turning to ACGGAGCAAUAUUACGGGCG, the “self-splicing fitness (ln)” value was -2.12 ± 0.19 (30 °C) and -0.224 ± 0.19 (37 °C). For GAGUAGCAAUAUUACGCAUG, in that order: -0.973 ± 0.29 and -0.606 ± 0.47. For the sequence ACCAAGCAAUAUUACGCCUG, the “self-splicing fitness (ln)” value by setting is: (30 °C) -2.05 ± 0.18; (37 °C) -2.31 ± 0.25.

Take ACGUAGCAAUAUUACGCCGC: the “self-splicing fitness (ln)” value (30 °C) is -3.7 ± 0.46.

On to GAAGAGCAAUAUUACGAACC, for which the “self-splicing fitness (ln)” value (30 °C) was -1.82 ± 0.25 and the “self-splicing fitness (ln)” value (37 °C) was -1.13 ± 0.29.

For the sequence ACUCAGCAAUAUUACGGAGA, the “self-splicing fitness (ln)” value (30 °C) is -0.941 ± 0.12 and the “self-splicing fitness (ln)” value (37 °C) is -0.997 ± 0.13.

Regarding CAGGAGCAAUAUUACGAAGG, the “self-splicing fitness (ln)” value (30 °C) is -1.43 ± 0.13 and the “self-splicing fitness (ln)” value (37 °C) is -0.955 ± 0.18. In the same order, the values of ACGUAGCAAUAUUACGAGAA are -2.37 ± 0.26 and -3.02 ± 0.33. For UGACAGCAAUAUUACGACGG, in that order: -0.284 ± 0.11 and -0.251 ± 0.11. In the same order, the values of GUUAAGCAAUAUUACGCAUU are -2.16 ± 0.18 and -1.1 ± 0.16. GCGAAGCAAUAUUACGGCGU: the “self-splicing fitness (ln)” value runs as follows: (30 °C) -2.68 ± 0.37; (37 °C) -0.799 ± 0.46. In the same order, the values of AACUAGCAAUAUUACGAUCC are 0.0588 ± 0.16 and 0.358 ± 0.19. As for UUGCAGCAAUAUUACGUCAC, the “self-splicing fitness (ln)” value (37 °C) is -1.35 ± 0.29.

Regarding UCCGAGCAAUAUUACGCUUC, for the setting “37 °C”, the “self-splicing fitness (ln)” value was -2.37 ± 0.35. AUCAAGCAAUAUUACGAGCA: the “self-splicing fitness (ln)” value is, setting by setting: (30 °C) -1.3 ± 0.075; (37 °C) -0.375 ± 0.076.

As to AAACAGCAAUAUUACGGUUG, the “self-splicing fitness (ln)” value is, setting by setting: (30 °C) -1.99 ± 0.061; (37 °C) -0.629 ± 0.075.

Consider AGUCAGCAAUAUUACGAGAU, for which the “self-splicing fitness (ln)” value by setting is: (30 °C) -2.61 ± 0.11; (37 °C) -1.76 ± 0.1. On to GGCUAGCAAUAUUACGCUGG, for which, for the setting “30 °C”, the “self-splicing fitness (ln)” value was -4.2 ± 0.42. As to GGUGAGCAAUAUUACGUAAA, the “self-splicing fitness (ln)” value is -2.79 ± 0.3 (30 °C) and -1.45 ± 0.31 (37 °C). On to GUUUAGCAAUAUUACGGUUG, for which the “self-splicing fitness (ln)” value (30 °C) is -3.13 ± 0.36 and the “self-splicing fitness (ln)” value (37 °C) is -1.47 ± 0.28.

For the sequence GAGCAGCAAUAUUACGGGUA, the “self-splicing fitness (ln)” value is -3.4 ± 0.16 (30 °C) and -2.36 ± 0.14 (37 °C). In the same order, the values of GAGAAGCAAUAUUACGCCGA are -2.1 ± 0.24 and -0.228 ± 0.17. In the same order, the values of AAAGAGCAAUAUUACGCACC are -2.03 ± 0.15 and -0.855 ± 0.17. Turning to UAUUAGCAAUAUUACGCUGG, the “self-splicing fitness (ln)” value is -2 ± 0.14 (30 °C) and -0.655 ± 0.14 (37 °C). For CUAUAGCAAUAUUACGAACU, the “self-splicing fitness (ln)” value (30 °C) was -3.67 ± 0.43.

As for GACAAGCAAUAUUACGUACU, the “self-splicing fitness (ln)” value is -1.16 ± 0.059 (30 °C) and -0.397 ± 0.079 (37 °C). In the same order, the values of CCCGAGCAAUAUUACGUCUG are -3.73 ± 0.29 and -2.32 ± 0.26. Consider CCUUAGCAAUAUUACGGAUC, for which the “self-splicing fitness (ln)” value is -3.45 ± 0.47 (30 °C) and -3.6 ± 0.34 (37 °C). For CUAAAGCAAUAUUACGUCUC, for the setting “37 °C”, the “self-splicing fitness (ln)” value was -1.93 ± 0.46. CGCCAGCAAUAUUACGCUGU: the “self-splicing fitness (ln)” value (30 °C) was -3.38 ± 0.29 and the “self-splicing fitness (ln)” value (37 °C) was -2.69 ± 0.39. In the same order, the values of GAAUAGCAAUAUUACGGAGU are -2.02 ± 0.18 and -2.03 ± 0.23. In the case of CGUAAGCAAUAUUACGACGU, the “self-splicing fitness (ln)” value is -2.15 ± 0.15 (30 °C) and -0.981 ± 0.15 (37 °C).

With CUGAAGCAAUAUUACGAGCG, the “self-splicing fitness (ln)” value runs as follows: (30 °C) 0.242 ± 0.072; (37 °C) 0.0253 ± 0.1. GGAUAGCAAUAUUACGAACC: the “self-splicing fitness (ln)” value (30 °C) was -2.49 ± 0.36 and the “self-splicing fitness (ln)” value (37 °C) is -1.77 ± 0.28. Consider GUAGAGCAAUAUUACGGAUG, for which the “self-splicing fitness (ln)” value by setting is: (30 °C) -3.96 ± 0.43; (37 °C) -2.08 ± 0.36. With CAACAGCAAUAUUACGUCCA, the “self-splicing fitness (ln)” value reads like this: (30 °C) -1.75 ± 0.11; (37 °C) -1.35 ± 0.13. As to CGAGAGCAAUAUUACGGCAA, the “self-splicing fitness (ln)” value (37 °C) was -2.79 ± 0.48.

Consider AGGAAGCAAUAUUACGGGUA, for which the “self-splicing fitness (ln)” value runs as follows: (30 °C) -2 ± 0.24; (37 °C) -1.6 ± 0.21.

CGACAGCAAUAUUACGCGUC: the “self-splicing fitness (ln)” value reads like this: (30 °C) -1.94 ± 0.14; (37 °C) -2.76 ± 0.27. In the same order, the values of CUCCAGCAAUAUUACGAGAA are -2.14 ± 0.38 and -1.91 ± 0.31. In the same order, the values of UACGAGCAAUAUUACGCCGC are -2.03 ± 0.41 and -2.1 ± 0.3. On to AACGAGCAAUAUUACGACGG, for which the “self-splicing fitness (ln)” value was -4.27 ± 0.37 (30 °C) and -2.04 ± 0.23 (37 °C). In the same order, the values of AAGAAGCAAUAUUACGCUUG are -1.23 ± 0.11 and -0.951 ± 0.14. For GUCCAGCAAUAUUACGCUAA, in that order: -0.5 ± 0.11 and 0.303 ± 0.11. In the same order, the values of CGCCAGCAAUAUUACGCGGC are -4.11 ± 0.47 and -3.03 ± 0.27. Take UACCAGCAAUAUUACGAAGG: the “self-splicing fitness (ln)” value reads like this: (30 °C) -2.22 ± 0.11; (37 °C) -0.865 ± 0.12. In the same order, the values of GACCAGCAAUAUUACGACAC are -0.384 ± 0.065 and -0.0663 ± 0.085. For CACAAGCAAUAUUACGGCUU, in that order: -3.67 ± 0.19 and -2.98 ± 0.23. For CGACAGCAAUAUUACGCAGG, in that order: -2.05 ± 0.081 and -0.906 ± 0.088.

Consider GUACAGCAAUAUUACGCUCU, for which the “self-splicing fitness (ln)” value is, setting by setting: (30 °C) -0.911 ± 0.091; (37 °C) -0.379 ± 0.11. On to CACAAGCAAUAUUACGCGCC, for which the “self-splicing fitness (ln)” value (30 °C) was -3.41 ± 0.26 and the “self-splicing fitness (ln)” value (37 °C) was -1.32 ± 0.16. For AAGUAGCAAUAUUACGCAAU, in that order: -2.09 ± 0.14 and -1.46 ± 0.17.

With AAUCAGCAAUAUUACGCAUC, the “self-splicing fitness (ln)” value was -0.287 ± 0.082 (30 °C) and 0.0734 ± 0.094 (37 °C). In the same order, the values of GGCUAGCAAUAUUACGAGGA are -1.17 ± 0.17 and -1.47 ± 0.14. In the same order, the values of GCAAAGCAAUAUUACGUCCA are -1.64 ± 0.12 and -0.284 ± 0.11. As for AAAUAGCAAUAUUACGCGGA, the “self-splicing fitness (ln)” value is -1.9 ± 0.12 (30 °C) and -0.348 ± 0.081 (37 °C). For AUCCAGCAAUAUUACGUCCG, the “self-splicing fitness (ln)” value by setting is: (30 °C) -2.45 ± 0.17; (37 °C) -1.04 ± 0.15. In the same order, the values of AACGAGCAAUAUUACGCUGG are -3.72 ± 0.31 and -0.45 ± 0.16.
